The values that follow come from paper PMC8208478, “A Bacteriophage DNA Mimic Protein Employs a Non-specific Strategy to Inhibit the Bacterial RNA Polymerase” (Frontiers in Microbiology, 2021).

The target of the assay is T1, His-tagged Gp44, full length (1–237) (bacteriophage SPO1).
T1 construct: Gp44, product of gene 44 of bacteriophage SPO1 of Bacillus subtilis, full length, residues 1-237, 27 kDa; The purified constructs came from pET-46 EK/LIC, which adds an N-terminal His-tag; C-terminal His-tagged and tag-free constructs (pDE2) were also made; PDB 6L6V holds only residues 1-55; also called Gp44^(1–237); recombinant Gp44; not shown: His-tag, N-terminal, kept
The assay can be described thus: ITC; MicroCal PEAQ-ITC, 25°C, dialysis buffer; 30 μM β or β′ subunit in the cell, 300 μM Gp44 in the syringe, 19 injections of 2 μL at 120 s intervals. The conditions noted are these: both partners purified.

B1: recombinant RNAP β subunit used in ITC (species not named) (natural protein)
chain: MTGQLVQYGRHRQRRSYARISEVLELPNLIEIQTSSYQWFLDEGLREMFQDISPIEDFTGNLSLEFIDYSLGEPKYPVEESKERDVTYSAPLRVKVRLINKETGEVKDQDVFMGDFPIMTDTGTFIINGAERVIVSQLVRSPSVYFSGKVDKNGKKGFTATVIPNRGAWLEYETDAKDVVYVRIDRTRKLPVTVLLRALGFGSDQEILDLIGENEYLRNTLDKDNTENSDKALLEIYERLRPGEPPTVENAKSLLDSRFFDPKRYDLANVGRYKINKKLHIKNRLFNQRLAETLVDPETGEILAEKGQILDRRTLDKVLPYLENGIGFRKLYPNGGVVEDEVTLQSIKIFAPTDQEGEQVINVIGNAYIEEEIKNITPADIISSISYFFNLLHGVGDTDDIDHLGNRRLRSVGELLQNQFRIGLSRMERVVRERMSIQDTNTITPQQLINIRPVIASIKEFFGSSQLSQFMDQTNPLAELTHKRRLSALGPGGLTRERAGMEVRDVHYSHYGRMCPIETPEGPNIGLINSLSSYAKVNRFGFIETPYRRVDPETGKVTGRIDYLTADEEDNYVVAQANARLDDEGAFIDDSIVARFRGENTVVSRNRVDYMDVSPKQVVSAATACIPFLENDDSNRALMGANMQRQAVPLMQPEAPFVGTGMEYVSGKDSGAAVICKHPGIVERVEAKNVWVRRYEEVDGQKVKGNLDKYSLLKFVRSNQGTCYNQRPIVSVGDEVVKGEILADGPSMELGELALGRNVMVGFMTWDGYNYEDAIIMSERLVKDDVYTSIHIEEYESEARDTKLGPEEITRDIPNVGEDALRNLDDRGIIRIGAEVKDGDLLVGKVTPKGVTELTAEERLLHAIFGEKAREVRDTSLRVPHGGGGIIHDVKVFNREDGDELPPGVNQLVRVYIVQKRKISEGDKMAGRHGNKGVISKILPEEDMPYLPDGTPIDIMLNPLGVPSRMNIGQVLELHMGMAARYLGIHIASPVFDGAREEDVWETLEEAGMSRDAKTVLYDGRTGEPFDNRVSVGIMYMIKLAHMVDDKLHARSTGPYSLVTQQPLGGKAQFGGQRFGEMEVWALEAYGAAYTLQEILTVKSDDVVGRVKTYEAIVKGDNVPEPGVPESFKVLIKELQSLGMDVKILSGDEEEIEMRDLEDEEDAKQADGLALSGDEEPEETASADVERDVVTKE
What is called Kd is the concentration at which binding is half-saturated. Low values mean tighter binding, high ones weaker binding. In turn, B1 gave a Kd of 3.46 ± 0.27 µM.
